Reference: patent US12698507B2, “Methods and compositions for conferring and/or enhancing herbicide tolerance using protoporphyrinogen IX oxidase of various cyanobacteria or variant thereof” (FarmHannong Co., Ltd., priority 2019, dated 2026)
Residue numbers refer to the chain shown, from its start. Numbers in names are those of the source.

B1: CyPPO19 A167I + V305M + F360L: variant of CyPPO19 PPO protein (SEQ ID NO: 1) (protein)
chain: MSEVDVAIVGGGLSGLSLAWRLQQSAPQYSVVLLEASDRLGGNITTQTAEGFVWELGPNSFAPTPALLQLIAEVGLQSELIRGDRHLPRYIYWRGQLYPLQPTRPLALATSNLLSPWGKVRAALGALGFVPPYLGSGDESVNSFFRRHLGQEVAERLVAPFVSGVYIGDPQQLSAAAAFRRIAQLEKLGGGLIAGALHLRRQQAPKPKPPTSVQMRPGELGSFKEGLAALPRAIAQQLKAPIHLQTPVQEITPDPKGGYLLRSGEQTWRARSVVLATPAYQTAELVAPFQPAIARVLATIPYPTMACVVLAYPAGLGRSVRPGFGVLIPRSQGIRTLGTIWSSCLFPQRTPAGWQVFTSLIGGATDPDLASLSEEAIVQQVQQDLNRLLDLPAAKARLLGMKVWRRAIPQYMVGYPEQWQQVTHALSQTPGLFLCSNYAEGVALGDRVEHGNRTAAAVAAYLSGGQP
modifications: Synthetic_PPO of Thermosynechococcus elongatus PKUAC-SCTE542 (comprising GenBank No. CP032152.1)
B2: CyPPO19 A167L + V305M + F360T: variant of CyPPO19 PPO protein (SEQ ID NO: 1) (protein)
chain: B1 chain with I167L, L360T
modifications: Synthetic_PPO of Thermosynechococcus elongatus PKUAC-SCTE542 (comprising GenBank No. CP032152.1)
B3: CyPPO19 A167I + L327T + F360V: variant of CyPPO19 PPO protein (SEQ ID NO: 1) (protein)
chain: B1 chain with M305V, L327T, L360V
modifications: Synthetic_PPO of Thermosynechococcus elongatus PKUAC-SCTE542 (comprising GenBank No. CP032152.1)
B4: CyPPO19 A167I + I408W + F360V: variant of CyPPO19 PPO protein (SEQ ID NO: 1) (protein)
chain: B1 chain with M305V, L360V, I408W
modifications: Synthetic_PPO of Thermosynechococcus elongatus PKUAC-SCTE542 (comprising GenBank No. CP032152.1)
B5: CyPPO19 A167L + L327T + F360M: variant of CyPPO19 PPO protein (SEQ ID NO: 1) (protein)
chain: B1 chain with I167L, M305V, L327T, L360M
modifications: Synthetic_PPO of Thermosynechococcus elongatus PKUAC-SCTE542 (comprising GenBank No. CP032152.1)
B6: CyPPO19 A167C + V305L + F360V: variant of CyPPO19 PPO protein (SEQ ID NO: 1) (protein)
chain: B1 chain with I167C, M305L, L360V
modifications: Synthetic_PPO of Thermosynechococcus elongatus PKUAC-SCTE542 (comprising GenBank No. CP032152.1)
B7: CyPPO19 V305M + L327T + F360I: variant of CyPPO19 PPO protein (SEQ ID NO: 1) (protein)
chain: B1 chain with I167A, L327T, L360I
modifications: Synthetic_PPO of Thermosynechococcus elongatus PKUAC-SCTE542 (comprising GenBank No. CP032152.1)
B8: CyPPO19 A167C + I408W + F360I: variant of CyPPO19 PPO protein (SEQ ID NO: 1) (protein)
chain: B1 chain with I167C, M305V, L360I, I408W
modifications: Synthetic_PPO of Thermosynechococcus elongatus PKUAC-SCTE542 (comprising GenBank No. CP032152.1)
B9: CyPPO19 A167C + L327T + F360I: variant of CyPPO19 PPO protein (SEQ ID NO: 1) (protein)
chain: B1 chain with I167C, M305V, L327T, L360I
modifications: Synthetic_PPO of Thermosynechococcus elongatus PKUAC-SCTE542 (comprising GenBank No. CP032152.1)
B10: CyPPO19 A167L + I408R + F360L: variant of CyPPO19 PPO protein (SEQ ID NO: 1) (protein)
chain: B1 chain with I167L, M305V, I408R
modifications: Synthetic_PPO of Thermosynechococcus elongatus PKUAC-SCTE542 (comprising GenBank No. CP032152.1)

Tested on: PPO-deficient BT3 E. coli (ΔPPO)
Assay: PPO-inhibiting herbicide tolerance test of PPO variants in E. coli (growth on herbicide-containing LB agar)
Assay type: cell-based
Details: CyPPO19 variants in BT3 (ΔPPO) E. coli; LB agar with 0 to 2,000 μM herbicide, 37° C., dark, 16-20 hours
Method in brief: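 PPO-deficient BT3 E. coli expressing each variant from pET303 were diluted to OD600=0.5, then 10-fold serially, and spotted on LB-ampicillin agar with 0 to 2,000 μM herbicide. After 16-20 h at 37° C. in the dark, growth relative to wild type was scored from '−' (equivalent) to '+' per 10-fold resistance, max '+++++'.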

Molecule | tolerance level relative to wild type, Carfentrazone | tolerance level relative to wild type, Flumioxazin | tolerance level relative to wild type, Fomesafen | tolerance level relative to wild type, Oxyfluorfen | tolerance level relative to wild type, Saflufenacil | tolerance level relative to wild type, Sulfentrazone | tolerance level relative to wild type, Tiafenacil
B1 | + (‘+’ per each 10-fold resistance) | +++++ (until ‘+++++’ as maximal resistance) | +++ (‘+’ per each 10-fold resistance) | +++ (‘+’ per each 10-fold resistance) | +++++ (until ‘+++++’ as maximal resistance) | +++++ (until ‘+++++’ as maximal resistance) | +++++ (until ‘+++++’ as maximal resistance)
B2 | + (‘+’ per each 10-fold resistance) | +++++ (until ‘+++++’ as maximal resistance) | +++ (‘+’ per each 10-fold resistance) | +++ (‘+’ per each 10-fold resistance) | +++++ (until ‘+++++’ as maximal resistance) | +++++ (until ‘+++++’ as maximal resistance) | ++++ (‘+’ per each 10-fold resistance)
B3 | + (‘+’ per each 10-fold resistance) | +++++ (until ‘+++++’ as maximal resistance) | +++ (‘+’ per each 10-fold resistance) | +++ (‘+’ per each 10-fold resistance) | +++++ (until ‘+++++’ as maximal resistance) | +++++ (until ‘+++++’ as maximal resistance) | +++++ (until ‘+++++’ as maximal resistance)
B4 | + (‘+’ per each 10-fold resistance) | ++++ (‘+’ per each 10-fold resistance) | + (‘+’ per each 10-fold resistance) | ++ (‘+’ per each 10-fold resistance) | ++++ (‘+’ per each 10-fold resistance) | +++ (‘+’ per each 10-fold resistance) | ++++ (‘+’ per each 10-fold resistance)
B5 | + (‘+’ per each 10-fold resistance) | +++++ (until ‘+++++’ as maximal resistance) | +++ (‘+’ per each 10-fold resistance) | +++ (‘+’ per each 10-fold resistance) | +++++ (until ‘+++++’ as maximal resistance) | +++++ (until ‘+++++’ as maximal resistance) | +++++ (until ‘+++++’ as maximal resistance)
B6 | + (‘+’ per each 10-fold resistance) | +++++ (until ‘+++++’ as maximal resistance) | + (‘+’ per each 10-fold resistance) | ++ (‘+’ per each 10-fold resistance) | +++++ (until ‘+++++’ as maximal resistance) | + (‘+’ per each 10-fold resistance) | ++++ (‘+’ per each 10-fold resistance)
B7 | + (‘+’ per each 10-fold resistance) | ++++ (‘+’ per each 10-fold resistance) | + (‘+’ per each 10-fold resistance) | ++ (‘+’ per each 10-fold resistance) | ++ (‘+’ per each 10-fold resistance) | ++ (‘+’ per each 10-fold resistance) | ++++ (‘+’ per each 10-fold resistance)
B8 | + (‘+’ per each 10-fold resistance) | +++++ (until ‘+++++’ as maximal resistance) | +++ (‘+’ per each 10-fold resistance) | +++ (‘+’ per each 10-fold resistance) | +++++ (until ‘+++++’ as maximal resistance) | +++++ (until ‘+++++’ as maximal resistance) | +++++ (until ‘+++++’ as maximal resistance)
B9 | + (‘+’ per each 10-fold resistance) | ++++ (‘+’ per each 10-fold resistance) | ++ (‘+’ per each 10-fold resistance) | +++ (‘+’ per each 10-fold resistance) | +++ (‘+’ per each 10-fold resistance) | ++++ (‘+’ per each 10-fold resistance) | ++++ (‘+’ per each 10-fold resistance)
B10 | + (‘+’ per each 10-fold resistance) | ++++ (‘+’ per each 10-fold resistance) | +++ (‘+’ per each 10-fold resistance) | +++ (‘+’ per each 10-fold resistance) | ++++ (‘+’ per each 10-fold resistance) | ++++ (‘+’ per each 10-fold resistance) | ++++ (‘+’ per each 10-fold resistance)
